Source: article PMC8899589, “Anti-PD-L1 peptide-conjugated prodrug nanoparticles for targeted cancer immunotherapy combining PD-L1 blockade with immunogenic cell death” (Theranostics, 2022)
Residues, ends and D or L forms follow the SMILES beside them. *: point of attachment. Doxorubicin(3'-N) = COc1cccc2c1C(=O)c1c(O)c3c(c(O)c1C2=O)C[C@@](O)(C(=O)CO)C[C@@H]3O[C@H]1C[C@H](N*)[C@H](O)[C@H](C)O1

Key:
cathepsin B = target: T1, cathepsin B (Homo sapiens, UniProt P07858); assay: enzyme cleavage assay, HPLC; type: in vitro ADME
T1 construct: purchased R&D systems
Protocol: The purity and molecular weight were analyzed using HPLC and matrix-assisted laser desorption/ionization time of flight mass spectrometer (MALDI-TOF, AB Sciex TOF/TOF 5800 System, USA) with cyano-4-hydroycinnamic acid (CHCA) matrix, respectively. The average size of PD-NPs in saline (1 mg/mL) was determined via dynamic light scattering (DLS; Zetasizer Nano ZS Malvern Instruments, UK). The morphology of nanoparticles in distilled water (1 mg/mL) was observed by transmission electron microscope (TEM; CM-200, USA). As a control, the cathepsin B-cleaved PD-NPs were also observed using TEM, wherein PD-NPs (1mg/mL) were pre-incubated with cathepsin B (10 μg) at 37 °C for 24 h. Enzyme cleavage assays were performed by incubating PD-NPs (10 μM) with cathepsin B, cathepsin D, cathepsin E, caspase-3 and caspase-9 (10 μg) in MES buffer (0.1 M, pH 5.5). As a control experiment, PD-NPs (10 μM) were also pre-incubated with irreversible cathepsin B inhibitor (Z-FA-FMK; 50 μΜ) in MES buffer and then further incubated with cathepsin B. Enzyme reaction buffer was analyzed by HPLC using an acetonitrile: H2O gradient from 20:80 (0 min) to 80:20 (20 min). In vitro drug release from the PD-NPs was further investigated under both physiological and enzymatic conditions. For these analyses, PD-NPs dispersed in the mouse serum (1 mg/mL) were loaded in membrane (Molecular weight cut off: 2000 Da; Dialysis membrane Spectra/Por® 7 MWCO 2000, 18 mm; Carl Roth, Karlsruhe, Germany) in the presence or absence of cathepsin B enzyme (10 μg). After incubation, peptide-DOX or free DOX released to the outer membrane was analyzed using HPLC. Fluorescence profiles of PD-NPs (10 μM) in saline was analyzed by fluorescence spectrophotometer (F-7000, Hitachi).

4T1 tumor-bearing mice [1] = assay: in vivo tumor inhibition; design: species or system mouse; conditions: once every three days; DOX or PD-NPs i.v. 3 mg/kg based on DOX contents, antibody i.p. 10 mg/kg; saline 1655.9 ± 319.94
Protocol: (§1) 4T1 tumor-bearing mice were randomly divided into four groups: (i) saline; (ii) free DOX; (iii) free DOX with anti-PD-L1 antibody; and (iv) PD-NPs. Then, mice were treated once every three days, with free DOX or PD-NPs (3 mg/kg based on DOX contents), at which time tumor volumes had reached 60 - 80 mm^3. The anti-PD-L1 antibody (10 mg/kg) was i.p. injected simultaneously with free DOX into mice. Antitumor efficacy was assessed by measuring tumor volumes, calculated as largest diameter x smallest diameter^2 x 0.53, every 2 days. For the analysis of antitumor immune responses, tumor tissues were collected on day 7, and single cells were isolated from tumor tissues using a Tumor Dissociation Kit. Following cell counting, the single cells were incubated with FcBlock at 37 °C for 5 min to avoid non-specific antibody binding. Then, multi-parameter staining was performed for 40 min to assess the following populations in tumor tissues; (i) PD-L1^+ cancer cells (CD45^-PD-L1^+); (ii) CRT^+ cancer cells (CD45^-CRT^+); (iii) CD8^+ T cells (CD45^+CD3^+CD8^+); and (iv) regulatory T cells (Tregs; CD45^+CD3^+CD4^+CD25^+). In order to assay the concentration of cytokines in the tumor microenvironment, the IFN-γ and TNF-α in the tumor supernatants were assessed using commercialized ELISA assay kits (Catalog # SMIF00 and SMTA00B, respectively, R&D systems).

[2] = tested on: PD-L1 in IFN-γ-treated 4T1 cells; assay: PD-L1 expression by western blot; type: cell-based; conditions: 4T1 cells pre-treated with IFN-γ 20 ng/mL 24 h, then 2 μM for 24 h
Protocol: PD-L1 expression in 4T1 cells after different treatment was analyzed via western blot. Briefly, 1 × 10^6 4T1 cells were seeded in 6-well cell culture plates with RPMI medium containing 10% FBS and 1% antibiotics. After 24 h of stabilization, the cells were pre-treated with IFN-γ (20 ng/mL) for 24 h and further incubated with equal molar dose (2 μM) of free DOX, PD-NPs, anti-PD-L1 antibody or anti-PD-L1 peptide ([…]) for 24 h. Then, each cell was solubilized with lysis buffer containing 1% protease inhibitors, and the lysates were centrifuged at 10,000 rpm for 15 min to remove cell debris. Proteins in lysates were quantified via BCA protein quantification kit (Thermo Fisher scientific, USA), and then separated by sodium dodecyl sulfate-polyacrylamide (SDS-PAGE) gel electrophoresis and transferred onto polyvinylidene difluoride (PVDF) membranes. Membranes were incubated with TBS-T containing 5% bovine serum albumin (BSA) for 50 min to block non-specific IgG binding and incubated with anti-mouse PD-L1 primary antibody ([…]) for 12 h at 4 °C. Then, membranes were further incubated with HRP-conjugated anti-rabbit IgG antibody for 90 min at room temperature. Finally, immunoreactive bands were observed via enhanced chemiluminescence (ECL) system.

4T1 tumor-bearing mice [3] = assay: survival analysis; type: in vivo, mouse; conditions: treated once every three days; saline group 18 days
Protocol: as §1, with “Then, multi-parameter staining was performed for 40 min to assess the following populations in tumor tissues; (i) PD-L1^+ cancer cells (CD45^-PD-L1^+); (ii) CRT^+ cancer cells (CD45^-CRT^+); (iii) CD8^+ T cells (CD45^+CD3^+CD8^+); and (iv) regulatory T cells (Tregs; CD45^+CD3^+CD4^+CD25^+).” left out
The statistical significance between two groups was analyzed using Student's t-test. One-way analysis of variance (ANOVA) was performed for comparisons of more than two groups, and multiple comparisons were analyzed using Tukey-Kramer post-hoc test. Survival data was plotted as Kaplan-Meier curves and analyzed using log-rank test. […]

4T1 tumor-bearing mice [4] = assay: toxicity study (body weight, blood analyses); type: in vivo, mouse; conditions: for blood analyses, hematological parameters (AST, ALT, BUN, CK, WBC, NEUT, LYMP): blood collected on day 16, treated once every three days; for body weights during treatment: treated once every three days
Protocol: The in vivo toxicity of PD-NPs was assessed by hematological analyses. Briefly, free DOX or PD-NPs (3 mg/kg based on DOX contents) were intravenously injected once every three days, and anti-PD-L1 antibody (10 mg/kg) was simultaneously i.p. injected into mice. Then, blood samples were collected from mice on day 16. For complete blood counts (CBCs), each blood sample was mixed with EDTA and a portion of each blood sample was centrifuged at 1,000 xg for 20 min, and then supernatants were stored at 4 °C. The following factors in blood samples were measured; aspartate transaminase (AST), alanine aminotransferase (ALT), blood urea nitrogen (BUN), creatinine kinase-MB (CK-MB), white blood cell (WBC), neutrophil (NEUT) and lymphocytes (LYMP).

4T1 cells = assay: cytotoxicity, CCK-8 assay; type: cell-based; conditions: 4T1, HUVEC and H9C2 cells, 24 h treatment
Protocol: (§2) The cytotoxicity of PD-NPs was assessed by cell counting kit-8 (CCK-8) assays. First, 1 x 10^4 4T1, HUVEC, H9C2, BMDMs, BMDCs or CD8^+ T cells were seeded in 96-well cell culture plates. After 24 h of stabilization, the PD-NPs or free DOX were treated with each cell for 24 h. Then, the cells were further incubated with culture medium containing CCK-8 solution (10%) for 20 min, and cell viability was measured by a microplate reader with 450 nm of wavelength (VERSAmaxTM; Molecular Devices Corp., USA).

macrophages = type: cell-based, mouse
Protocol: (§3) 4T1 ([…]), HUVEC (human umbilical vein endothelial cells) and H9C2 (rat BDIX heart myoblasts) cells were maintained in RPMI-1640, Endothelial cell growth medium (EGM) or Dulbecco's Modified Eagle Medium (DMEM) supplemented with 10% (v/v) fetal bovine serum (FBS), 1% streptomycin and 100 U/mL penicillin, respectively. Bone marrow-derived macrophages (BMDMs) and bone marrow-derived dendritic cells (BMDCs) were prepared by isolating bone marrow cells from BALB/c mice. Then, bone marrow cells were differentiated into BMDMs by incubating with M-CSF (Macrophage colony-stimulating factor, 20 ng/mL) for 7 days, or were differentiated into BMDCs by culturing for 7 days in the presence of GM-CSF (20 ng/mL), IL4 (20 ng/mL) and 0.1% β-mercaptoethanol. After isolation, BMDMs and BMDCs were maintained in RPMI-1640 medium supplemented with 10% (v/v) FBS, 1% streptomycin, and 100 U/mL penicillin.
as §2, with “After 24 h of stabilization, the PD-NPs or free DOX were treated with each cell for 24 h.” left out

DCs = assay: cytotoxicity against immune cells, CCK-8 assay; type: cell-based, mouse; conditions: 24 h treatment, P < 0.001
Protocol: as §3
as §2, with “After 24 h of stabilization, the PD-NPs or free DOX were treated with each cell for 24 h.” left out

T lymphocytes = assay: cytotoxicity against immune cells, CCK-8 assay; type: cell-based, mouse; conditions: 24 h treatment, P < 0.001
Protocol: as §2

4T1 tumor-bearing mice [5] = assay: biodistribution by NIRF imaging; type: in vivo, mouse; conditions: 24 h after injection, 3 mg/kg based on DOX contents
Protocol: The 6-week female BALB/c mice were purchased from NaraBio (Gyeonggi-do, Republic of Korea). Mice were bred under pathogen-free conditions in the Korea Institute of Science and Technology (KIST). All experiments with animals were performed in compliance with the relevant laws and institutional guidelines of Institutional Animal Care and Use Committee (IACUC; approved number of 2020-123) in Korea Institute of Science and Technology (KIST). The in vivo biodistribution of PD-NPs was assessed in 4T1 tumor-bearing mice, which were prepared by subcutaneous inoculation of 1 x 10^7 4T1 cells. […] Noninvasive near-infrared fluorescence (NIRF) imaging was performed using an IVIS Lumina Series III system (PerkinElmer; Waltham, MA, USA) after 1, 6 and 24 h of injection. Fluorescence intensity in tumor regions was quantified using a Living Image software (PerkinElmer; Waltham, MA, USA). For ex vivo fluorescence imaging, mice were sacrificed after 24 h of injection, followed by extraction of liver, lung, spleen, kidney, heart and tumor tissues. Fluorescence intensity in tissues was analyzed using an IVIS Lumina Series III system. […] Slide-mounted tumor sections were stained with APC fluorescent dye-conjugated CD31 or PD-L1 antibody at 4 °C for 12 h, after which tumor tissues were analyzed using a Leica TCS SP8 confocal laser-scanning microscope.

SMILES | cleavage by cathepsin B (cathepsin B; cathepsin B 10 μg, pH 5.5 MES buffer, 0, 6, 12 and 24 h, HPLC) | tumor volume on day 16 (4T1 tumor-bearing mice [1]) [mm^3] | PD-L1 expression [2] | median survival (4T1 tumor-bearing mice [3]) [days] | blood analyses, hematological parameters (AST, ALT, BUN, CK, WBC, NEUT, LYMP) (4T1 tumor-bearing mice [4]) | body weights during treatment (4T1 tumor-bearing mice [4]) | cytotoxicity in three types of cells (4T1 cells) | cytotoxicity compared to free DOX (macrophages) | cytotoxicity compared to free DOX (DCs) | cytotoxicity compared to free DOX (T lymphocytes) | cleaved by cathepsin B (cathepsin B; 10 μM, cathepsin B 10 μg, MES buffer 0.1 M pH 5.5, 6 h post-incubation, HPLC) | cleavage in cathepsin B-suppressed condition (cathepsin B; cathepsin B with irreversible inhibitor Z-FA-FMK 50 μM, MES buffer pH 5.5, HPLC) | accumulation in the liver tissues versus free DOX (4T1 tumor-bearing mice [5]; ex vivo NIRF imaging) | accumulation at tumor tissues compared to free DOX (4T1 tumor-bearing mice [5]; i.v., NIRF)
COc1cccc2c1C(=O)c1c(O)c3c(c(O)c1C2=O)C[C@@](O)(C(=O)CO)C[C@@H]3O[C@H]1C[C@H](NC(=O)CNC(=O)[C@H](CCCNC(=N)N)NC(=O)CNC(=O)[C@H](Cc2ccccc2)NC(=O)[C@H](CCCNC(=N)N)NC(=O)[C@@H](NC(=O)[C@H](CCCNC(=N)N)NC(=O)[C@H](C)NC(=O)[C@H](CCCNC(=N)N)NC(=O)[C@@H](NC(=O)[C@H](CS)NC(C)=O)C(C)C)[C@@H](C)O)[C@H](O)[C@H](C)O1 [CVRARTR-FGRG-DOX] (Ac-CVRARTRFGRG-{Doxorubicin(3'-N)}) | not cleaved | – | – | – | – | – | – | – | – | – | – | – | – | –
COc1cccc2c1C(=O)c1c(O)c3c(c(O)c1C2=O)C[C@@](O)(C(=O)CO)C[C@@H]3O[C@H]1C[C@H](N)[C@H](O)[C@H](C)O1.Cl [free DOX, Doxorubicin hydrochloride] | – | 1028.73 ± 218.15 | further increased | 20 | severe cardiac, renal and hepatic toxicity | severe body weight loss | indiscriminate cytotoxicity with similar IC50 | – | – | – | – | – | – | –
COc1cccc2c1C(=O)c1c(O)c3c(c(O)c1C2=O)C[C@@](O)(C(=O)CO)C[C@@H]3O[C@H]1C[C@H](NC(=O)CNC(=O)[C@H](CCCNC(=N)N)NC(=O)[C@H](CCCNC(=N)N)NC(=O)[C@H](Cc2ccccc2)NC(=O)[C@H](CCCNC(=N)N)NC(=O)[C@@H](NC(=O)[C@H](CCCNC(=N)N)NC(=O)[C@H](C)NC(=O)[C@H](CCCNC(=N)N)NC(=O)[C@@H](NC(=O)[C@H](CS)NC(C)=O)C(C)C)[C@@H](C)O)[C@H](O)[C@H](C)O1 [PD-NPs] (Ac-CVRARTRFRRG-{Doxorubicin(3'-N)}) | – | – | – | – | in normal range | gradually increased | – | significantly reduced | significantly reduced | significantly reduced | approximately 99% | not cleaved | significantly higher accumulation | 4.01-4.48 times
